According to patent publication US10758526B2, “Combination therapies using agents that target tumor-associated stroma or tumor cells and other pathways” (BIOMED VALLEY DISCOVERIES, INC., priority 2014, dated 2020):
Square brackets hold non-standard residues; d marks the D form. Peptide text beside a SMILES is read from it. * marks the point of attachment. Dolaproine = CO[C@@H]([C@@H]1CCCN1)[C@@H](C)C(=O)O; Dil = CC[C@H](C)[C@H](NC)[C@@H](CC(=O)O)OC; X1 = C[C@@H](N*)[C@@H](O)c1ccccc1; NMeV = CN[C@H](C(=O)O)C(C)C

T1: mTEM8-Fc (Mus musculus, UniProt Q9CZ52)
T1 construct: Fc
T1 sequence (Q9CZ52 31-319 limits assumed): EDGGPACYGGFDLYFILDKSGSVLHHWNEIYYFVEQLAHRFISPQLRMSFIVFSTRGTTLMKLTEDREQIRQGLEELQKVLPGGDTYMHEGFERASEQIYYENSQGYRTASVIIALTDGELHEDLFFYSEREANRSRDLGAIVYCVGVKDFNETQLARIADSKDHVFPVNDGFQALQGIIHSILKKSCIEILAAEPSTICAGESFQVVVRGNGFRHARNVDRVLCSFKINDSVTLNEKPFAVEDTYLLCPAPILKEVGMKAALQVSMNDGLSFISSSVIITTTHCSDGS

T2: hTEM8-AP (Homo sapiens, UniProt Q9H6X2)
T2 sequence (Q9H6X2 33-321 limits assumed): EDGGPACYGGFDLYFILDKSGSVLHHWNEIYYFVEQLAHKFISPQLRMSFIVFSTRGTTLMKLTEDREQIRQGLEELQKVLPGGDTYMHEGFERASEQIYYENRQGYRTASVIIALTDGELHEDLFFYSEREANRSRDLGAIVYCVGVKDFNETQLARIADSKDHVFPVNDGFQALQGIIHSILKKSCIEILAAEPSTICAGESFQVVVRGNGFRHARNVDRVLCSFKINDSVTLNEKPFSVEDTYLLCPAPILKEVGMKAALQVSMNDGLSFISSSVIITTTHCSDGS


Experiments:
[1] = Pharmacokinetics of TEM8 antibodies in mouse, multiple dose; format: in vivo
Text: (§1) Tables 8 and 9 show pharmacokinetic properties of TEM8 antibodies according to the present invention in mouse for single dose (Table 8) and multiple dose (Table 9) treatments.

mTEM8-Fc = biological target: T1, mTEM8-Fc; assay: Biocore affinity measurement of anti-TEM8 Fabs, mTEM8-Fc; format: binding
[2] = Pharmacokinetics of TEM8 antibodies in mouse, single dose; format: in vivo
Text: as §1

3T3 fibroblasts = assay: Contractility of 3T3 fibroblasts in the presence of TGFb-1; format: cell-based; conditions: in vitro
Method: 3T3 cells were cultured and contractility in the presence of TGFb-1 was measured in control or M825 exposed cells. […] Contractile forces are thought to contribute to increased cancer cell invasion.

hTEM8-AP = biological target: T2, hTEM8-AP; assay: Biocore affinity measurement of anti-TEM8 Fabs, hTEM8-AP; format: binding
[3] = system: OVCAR3 ovarian cancer model; assay: M825 and M825-MMAE in OVCAR3 ovarian cancer model; format: in vivo, mice; conditions: 0.2 mg/kg, equivalent to maximum MMAE in the 10 mg/kg ADC group
Method: Treatment initiated when tumor volume reached approximately 120 mm^3. M825 was given i.v. at 10 mg/kg and M825-MMAE was given i.v. at 1, 3, or 10 mg/kg, 2 times per week for 3.5 weeks. […] The 10 mg/kg ADC group was redosed on Day 56, 2 times per week.

Molecule | AUCI ([1]; 5 mg/kg) [µg·h/mL] | AUCT ([1]; 5 mg/kg) [µg·h/mL] | CLF ([1]; 5 mg/kg) [mL/h/kg] | CMAX ([1]; 5 mg/kg) [ng/mL] | HALF ([1]; 5 mg/kg) [h] | KEL ([1]; 5 mg/kg) [h⁻¹] | TMAX ([1]; 5 mg/kg) [h] | VZF ([1]; 5 mg/kg) [L/kg] | AUCI ([1]; 15 mg/kg) [µg·h/mL] | AUCT ([1]; 15 mg/kg) [µg·h/mL] | CLF ([1]; 15 mg/kg) [mL/h/kg] | CMAX ([1]; 15 mg/kg) [ng/mL] | HALF ([1]; 15 mg/kg) [h] | KEL ([1]; 15 mg/kg) [h⁻¹] | TMAX ([1]; 15 mg/kg) [h] | VZF ([1]; 15 mg/kg) [L/kg] | AUCI ([2]; 5 mg/kg) [µg·h/mL] | AUCT ([2]; 5 mg/kg) [µg·h/mL] | CLF ([2]; 5 mg/kg) [mL/h/kg] | CMAX ([2]; 5 mg/kg) [ng/mL] | other results
M825: TEM8 monoclonal antibody (hIgG1), VH SEQ ID NO:1 and VL SEQ ID NO:2 | 1408.345 | 1408.201 | 3.55 | 54300 | 9.10 | 0.0762 | 3 | 0.04661 | 21649.446 | 21648.879 | 0.69 | 314000 | 17.05 | 0.0406 | 3 | 0.01705 | 1310.519 | 1310.222 | 3.82 | 46800 | ka (mTEM8-Fc): 1.7e+06 M⁻¹ s⁻¹; kd (mTEM8-Fc): 8.942e-05 s⁻¹; HALF ([2]; 5 mg/kg): 6.03 h; KEL ([2]; 5 mg/kg): 0.1149 h⁻¹; TMAX ([2]; 5 mg/kg): 3 h; VZF ([2]; 5 mg/kg): 0.03319 L/kg; AUCI ([2]; 15 mg/kg): 9239.202 µg·h/mL; AUCT ([2]; 15 mg/kg): 8991.767 µg·h/mL; CLF ([2]; 15 mg/kg): 1.62 mL/h/kg; CMAX ([2]; 15 mg/kg): 144000 ng/mL; HALF ([2]; 15 mg/kg): 23.77 h; KEL ([2]; 15 mg/kg): 0.0292 h⁻¹; TMAX ([2]; 15 mg/kg): 3 h; VZF ([2]; 15 mg/kg): 0.05566 L/kg; contractility of activated 3T3 fibroblasts (3T3 fibroblasts): block the contractility; ka (hTEM8-AP): 3.05e+06 M⁻¹ s⁻¹; kd (hTEM8-AP): 0.0001802 s⁻¹
CC[C@H](C)[C@@H]([C@@H](CC(=O)N1CCC[C@H]1[C@H](OC)[C@@H](C)C(=O)N[C@H](C)[C@@H](O)c1ccccc1)OC)N(C)C(=O)[C@@H](NC(=O)[C@@H](NC)C(C)C)C(C)C [MMAE, monomethylauristatin (MMAE), reference compound] (H-[NMeV]V[Dil][Dolaproine]-X1) |  |  |  |  |  |  |  |  |  |  |  |  |  |  |  |  |  |  |  |  | effect on tumor growth [3]: No effect
M863: TEM8 monoclonal antibody (hIgG1), VH SEQ ID NO:7 and VL SEQ ID NO:8 (antibody, V domains shown, TEM863 mAb VH; TEM863 mAb VL) VH: EVQLVETGAEVKKPGASVKVSCKASGYTFTGYYMHWVRQAPGQGLEWMGWINPTSGSTNYAQKFQGRVTMTRDTSISTAYMELSGLRSDDTAVYYCVRDPGSPKWLAFDPWGQGTLVTVSS VL: DIQLTQSPSSLSASVGDRVTITCRASRAISRYLNWYQQKPGKAPKLLIYAASSLQSGVSSRFSGSGSGTEFTLTISSLQPEDFATYFCQQTYSPPITFGQGTRLEIKR | 1425.735 | 1425.565 | 3.51 | 58600 | 14.29 | 0.0485 | 3 | 0.07228 | 7272.672 | 7271.7 | 2.06 | 147000 | 12.64 | 0.0549 | 3 | 0.0376 | 1330.847 | 1330.742 | 3.76 | 51300 | HALF ([2]; 5 mg/kg): 8.59 h; KEL ([2]; 5 mg/kg): 0.0807 h⁻¹; TMAX ([2]; 5 mg/kg): 3 h; VZF ([2]; 5 mg/kg): 0.04656 L/kg; AUCT ([2]; 15 mg/kg): 10721.535 µg·h/mL; CMAX ([2]; 15 mg/kg): 355000 ng/mL; TMAX ([2]; 15 mg/kg): 3 h
